The values that follow come from patent US20190359687A1 (Bayer, published 2019).

T1: GP5-14 alanine scanning peptide (human, N-terminal biotin)
T1 construct: GP5 with alanine at position 14
T1 peptide: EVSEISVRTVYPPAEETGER

T2: GP5-13 alanine scanning peptide (human, N-terminal biotin)
T2 construct: GP5 with alanine at position 13
T2 peptide: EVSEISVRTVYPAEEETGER

T3: GP5-11 alanine scanning peptide (human, N-terminal biotin)
T3 construct: GP5 with alanine at position 11
T3 peptide: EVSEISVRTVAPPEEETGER

T4: GP5-16 alanine scanning peptide (human, N-terminal biotin)
T4 construct: GP5 with alanine at position 16
T4 peptide: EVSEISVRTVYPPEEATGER

T5: GP10 peptide (human)
T5 peptide: Biotin-TVYPPEEE

T6: GP16 peptide (human)
T6 peptide: Biotin-EETGERVQ

T7: GP7 peptide (human)
T7 peptide: Biotin-SVRTVYPP

T8: GP15 peptide (human)
T8 peptide: Biotin-EEETGERV

T9: GP12 peptide (human)
T9 peptide: Biotin-YPPEEETG

T10: GP8 peptide (human)
T10 peptide: Biotin-VRTVYPPE

T11: GP9 peptide (human)
T11 peptide: Biotin-RTVYPPEE

T12: GP14 peptide (human)
T12 peptide: Biotin-PEEETGER

T13: GP13 peptide (human)
T13 peptide: Biotin-PPEEETGE

T14: GP11 peptide (human)
T14 peptide: Biotin-VYPPEEET

T15: B-domain deleted FVIII (human, UniProt P00451 20-2351)
T15 construct: control without scFv; also called BDD; BDD-FVIII
T15 sequence (looked up): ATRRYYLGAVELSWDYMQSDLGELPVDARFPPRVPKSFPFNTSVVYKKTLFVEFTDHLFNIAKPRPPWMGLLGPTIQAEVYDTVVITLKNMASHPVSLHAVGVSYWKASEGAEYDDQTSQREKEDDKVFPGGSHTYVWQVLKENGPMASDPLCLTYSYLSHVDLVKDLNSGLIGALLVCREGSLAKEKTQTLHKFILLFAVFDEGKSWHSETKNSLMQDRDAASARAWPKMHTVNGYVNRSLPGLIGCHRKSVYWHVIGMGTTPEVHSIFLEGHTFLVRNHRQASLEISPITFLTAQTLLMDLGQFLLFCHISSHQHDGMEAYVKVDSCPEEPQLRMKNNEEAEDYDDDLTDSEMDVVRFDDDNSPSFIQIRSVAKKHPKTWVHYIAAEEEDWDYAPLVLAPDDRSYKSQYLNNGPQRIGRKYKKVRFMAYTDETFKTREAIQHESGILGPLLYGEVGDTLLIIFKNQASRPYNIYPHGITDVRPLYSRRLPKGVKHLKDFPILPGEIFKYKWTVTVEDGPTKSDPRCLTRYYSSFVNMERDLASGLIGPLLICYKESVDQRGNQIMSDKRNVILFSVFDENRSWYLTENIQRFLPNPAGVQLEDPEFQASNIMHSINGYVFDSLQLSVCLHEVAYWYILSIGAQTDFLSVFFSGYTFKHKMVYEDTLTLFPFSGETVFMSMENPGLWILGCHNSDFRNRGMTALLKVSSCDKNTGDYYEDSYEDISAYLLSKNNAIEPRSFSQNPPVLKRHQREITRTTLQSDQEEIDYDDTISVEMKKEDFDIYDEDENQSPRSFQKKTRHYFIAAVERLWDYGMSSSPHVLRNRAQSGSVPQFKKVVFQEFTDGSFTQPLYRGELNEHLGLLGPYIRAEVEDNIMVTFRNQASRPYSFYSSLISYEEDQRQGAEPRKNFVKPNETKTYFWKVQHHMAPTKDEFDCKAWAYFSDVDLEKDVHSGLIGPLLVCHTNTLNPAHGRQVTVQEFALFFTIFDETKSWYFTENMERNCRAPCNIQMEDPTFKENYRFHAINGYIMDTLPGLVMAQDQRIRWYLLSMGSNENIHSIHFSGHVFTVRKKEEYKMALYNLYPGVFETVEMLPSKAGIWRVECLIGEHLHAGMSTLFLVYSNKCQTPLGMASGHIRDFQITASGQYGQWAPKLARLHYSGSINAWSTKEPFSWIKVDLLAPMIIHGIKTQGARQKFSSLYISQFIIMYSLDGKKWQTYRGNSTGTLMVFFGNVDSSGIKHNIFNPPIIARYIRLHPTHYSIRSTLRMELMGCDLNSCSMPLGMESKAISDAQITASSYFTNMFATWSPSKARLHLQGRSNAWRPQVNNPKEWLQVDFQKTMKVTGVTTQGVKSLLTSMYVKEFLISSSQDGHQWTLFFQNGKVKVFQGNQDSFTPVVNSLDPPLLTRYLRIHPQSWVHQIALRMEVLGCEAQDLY

T16: Rhesus monkey glycophorin A on Rhesus monkey red blood cells (Rhesus monkey, UniProt A0A1D5Q349 20-150)
T16 construct: whole, on cells; also called Rhesus RBC; monkey GPA
T16 sequence: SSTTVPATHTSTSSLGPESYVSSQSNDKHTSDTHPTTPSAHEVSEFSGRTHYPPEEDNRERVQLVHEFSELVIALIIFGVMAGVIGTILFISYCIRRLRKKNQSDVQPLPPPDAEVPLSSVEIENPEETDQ

B1: TPP-5906 Fab (Fab, V domains shown)
VH: EVQLVQSGAEVKKPGASVKVSCKASGYTFTTYTIHWVRQAPGQGLEWMGYINPSSGYTRYNPKFKGRVTMTRDKSTSTAYMELRSLRSDDTAVYYCQTGTRDYWGQGTTVTVSS
VL: DIQLTQSPSFLSASVGDRVTITCRASSSVSYIYWFQQKPGKAPKLLIYATSTLQSGVPSRFSGSGSGTEYTLTISSLQPEDFATYYCHQRNSFPYTFGQGTKLEIKR
notes: also called parental humanized and germlined 6C12 Fab
B2: human glycophorin A in the red blood cell membrane (other, UniProt P02724 20-150, looked up)
chain: LSTTEVAMHTSTSSSVTKSYISSQTNDTHKRDTYAATPRAHEVSEISVRTVYPPEEETGERVQLAHHFSEPEITLIIFGVMAGVIGTILLISYGIRRLIKKSPSDVKPLPSPDTDVPLSSVEIENPETSDQ
notes: whole, on cells; used for intact RBC, isolated RBC membranes and transfected cells; the assay field tells which; also called GPA; hGPA
B3: 1H5 scFv-Fc (Fc fusion)
scFv: QVQLQQSGAELARPGASVKMSCKASGYTFTSYSIHWIKQRPGQSLEWIGYINPNSDYANYNQKFKDKATLTTDKSSTTAYMQLSSLTTDDSAVYYCQTGTRDYWGQGTTLTVSSGGGGSGGGGSGGGGSDIVMTQSPSSLSVSAGEKVTMSCKSSQSLLNSGNQKNYLAWYQQKPGQPPKLLIYGASTRESGVPDRFTGSGSGTDFTLTISSVQAEDLAVYYCQNDHSYPYTFGGGTKLEIKGGGGAGGGGCKPCICTVPEVSSVFIFPPKPKDVLTITLTPKVTCVVVDISKDDPEVQFSWFVDDVEVHTAQTQPREEQFNSTFRSVSELPIMHQDWLNGKEFKCRVNSAAFPAPIEKTISKTKGRPKAPQVYTIPPPKEQMAKDKVSLTCMITDFFPEDITVEWQWNGQPAENYKNTQPIMDTDGSYFVYSKLNVQKSNWEAGNTFTCSVLHEGLHNHHTEKSLSHSPGK
notes: as m18

Test [1] concerns the target T1, GP5-14 alanine scanning peptide. The test can be described thus: alanine scanning peptide ELISA. In general terms: In an ELISA, binding on a coated surface is turned into a signal by an enzyme label.
Test [2] has as its target T2, GP5-13 alanine scanning peptide. The test can be described thus: alanine scanning peptide ELISA.
Test [3] deals with T3, GP5-11 alanine scanning peptide. The test can be described thus: alanine scanning peptide ELISA.
Test [4] has as its target T4, GP5-16 alanine scanning peptide. Put plainly: alanine scanning peptide ELISA.
Test [5] has as its target B2. Put plainly: SPR, human RBC membranes, Fab. (In general: SPR reads the build-up and loss of mass on a sensor chip optically.)
Experimental: Kinetic analysis of the antibody binding to human red blood cell membranes was also performed using surface plasmon resonance (SPR) using a Biacore instrument. In this assay membranes prepared from human red blood cells were attached to a L1 sensor matrix and antibodies were flowed over the RBC membranes.
The target of the next test is T5, GP10 peptide. The test can be described thus: peptide ELISA, Fab.
The target in another test is T6, GP16 peptide. The test can be described thus: peptide ELISA, Fab.
For a further test, the target named is T7, GP7 peptide. Put plainly: peptide ELISA, Fab.
A further test addresses T8, GP15 peptide. The test can be described thus: peptide ELISA, Fab.
In a further test the target is T9, GP12 peptide. The test can be described thus: peptide ELISA, Fab.
A further test concerns the target T10, GP8 peptide. The test can be described thus: peptide ELISA, Fab.
For a further test, the target named is T11, GP9 peptide. The test can be described thus: peptide ELISA, Fab.
The next test addresses T12, GP14 peptide. Put plainly: peptide ELISA, Fab.
For the next test, the target named is T13, GP13 peptide. Put plainly: peptide ELISA, Fab.
The target in another test is T14, GP11 peptide. The test can be described thus: peptide ELISA, Fab.
A further test concerns the target T15, B-domain deleted FVIII. Put plainly: RBC partition assay, FVIII activity left in plasma.
Test [6] concerns the target B2. The test can be described thus: FACS, scFv-Fc. (A flow cytometer gives signals particle by particle.)
In test [7] the target is T16, Rhesus monkey glycophorin A on Rhesus …. The test can be described thus: FACS, Rhesus RBC.
Test [8] deals with T17, Cynomolgus monkey glycophorin A on Cynomolgus monkey red blood cells (Cynomolgus monkey).
T17 construct: whole, on cells; also called Cyno RBC; Cyno GPA
The test can be described thus: FACS, Cyno #2 RBC.

Test [9] concerns the target T17, Cynomolgus monkey glycophorin A on …. The test can be described thus: FACS, Cyno #1 RBC.
The target is the same in test [10]. The test can be described thus: FACS, Cyno #3 RBC.
Test [11] has as its target B2. The test can be described thus: FACS, Human RBC.
The target of another test is T18, dog red blood cells (dog).
T18 construct: also called dog RBC
Put plainly: FACS, Dog RBC.

No end group written: not given here. *: point of attachment. Biotin = O=C1N[C@H]2[C@H](CS[C@H]2CCCCC(=O)*)N1

Text for GP10 peptide: (§1) These peptides were attached to the surface of a streptavidin coated plate via a biotin moiety that was present at the N-terminus of each peptide.
Text for GP11 peptide: as §1
Text for GP12 peptide: as §1
Text for GP13 peptide: as §1
Text for GP14 peptide: as §1
Text for GP15 peptide: as §1
Text for GP16 peptide: as §1
Text for GP7 peptide: as §1
Text for GP8 peptide: as §1
Text for GP9 peptide: as §1

Take B1: the “percent reduction of binding” value was more than 95% in test [1], 70% in test [2], more than 95% in [3] and 50% in test [4]. Also, the “fold improvement of affinity against the parental antibody” value in test [5] was approximately 200 fold. Further, the binding result with GP10 peptide, with GP16 peptide, in the test with GP7 peptide, in the test with GP15 peptide, with GP12 peptide and in the test with GP8 peptide was “no binding (tested: 0.5 ug/ml)” in each case. In addition, the binding result with GP9 peptide, in the test with GP14 peptide, with GP13 peptide and in the test with GP11 peptide was “no binding (tested: 0.5 ug/ml)” in each case.
As for B2, the binding result with B-domain deleted FVIII is reported as “no binding (tested: 1 IU/mL)”.
For the molecule B3, in [6], the binding result was “no binding”. Moreover, the FACS signal (in test [7]; in [8]; in [9]; in test [10]; in test [11]; with dog red blood cells) was 1 Flourescent units each time.
